# Positions count from the first letter of the chain named.
# T1: EsCas13d, nuclease-dead (Eubacterium siraeum, UniProt B0MS50, R295A;H300A;R849A;H854A)
# T1 sequence: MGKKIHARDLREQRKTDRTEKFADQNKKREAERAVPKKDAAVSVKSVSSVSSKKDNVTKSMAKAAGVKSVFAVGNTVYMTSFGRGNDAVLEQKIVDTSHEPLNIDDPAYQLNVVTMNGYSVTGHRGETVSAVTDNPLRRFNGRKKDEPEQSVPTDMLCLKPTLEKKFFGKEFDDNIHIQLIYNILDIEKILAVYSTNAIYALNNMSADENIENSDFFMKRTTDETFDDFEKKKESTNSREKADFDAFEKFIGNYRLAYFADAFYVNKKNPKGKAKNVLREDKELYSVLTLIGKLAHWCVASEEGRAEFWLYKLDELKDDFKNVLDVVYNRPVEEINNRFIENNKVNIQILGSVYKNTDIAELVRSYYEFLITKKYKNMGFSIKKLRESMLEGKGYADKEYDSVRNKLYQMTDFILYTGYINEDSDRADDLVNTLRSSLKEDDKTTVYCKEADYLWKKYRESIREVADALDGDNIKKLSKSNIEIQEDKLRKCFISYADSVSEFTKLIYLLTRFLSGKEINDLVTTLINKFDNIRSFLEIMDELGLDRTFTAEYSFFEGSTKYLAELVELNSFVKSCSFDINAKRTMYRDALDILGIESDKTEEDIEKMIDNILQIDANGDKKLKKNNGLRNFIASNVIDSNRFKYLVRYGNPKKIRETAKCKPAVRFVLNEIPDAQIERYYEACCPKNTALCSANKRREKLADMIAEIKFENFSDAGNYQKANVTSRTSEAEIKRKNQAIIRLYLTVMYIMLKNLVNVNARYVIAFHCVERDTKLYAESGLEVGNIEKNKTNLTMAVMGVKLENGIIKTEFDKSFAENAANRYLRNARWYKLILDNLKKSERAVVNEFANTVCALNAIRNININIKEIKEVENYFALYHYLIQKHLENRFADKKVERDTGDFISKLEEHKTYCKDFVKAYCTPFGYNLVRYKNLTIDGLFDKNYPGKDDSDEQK
# B1: target 1 MT 5'PFS GGC 3'PFS ACU (mixed)
# RNA 1: CACCCGUGCAAAAAUGCAGGGGUCUAAAACUGAGCGGAUAACCUCUCUAUGG
# RNA 2: GGGAAUGGAUCCACAUCUACGAAUUCGGCCCAUAGAGAGGUUAUCCGCUCAACUAGAUCGGAAGAGCACACGU
# B2: target 1 MT 5'PFS GGA 3'PFS UUU (mixed)
# RNA 1: B1 RNA 1
# RNA 2: B1 RNA 2 with C29A, A52U, C53U
# B3: target 1 MT 5'PFS UGU 3'PFS ACU (mixed)
# RNA 1: B1 RNA 1
# RNA 2: B1 RNA 2 with G27U, C29U
# B4: target 1 MT 5'PFS UGU 3'PFS ACA (mixed)
# RNA 1: B1 RNA 1
# RNA 2: B1 RNA 2 with G27U, C29U, U54A
# B5: target 1 MT 5'PFS GGA 3'PFS UUA (mixed)
# RNA 1: B1 RNA 1
# RNA 2: B1 RNA 2 with C29A, A52U, C53U, U54A
# B6: target 1 MT 5'PFS GCC 3'PFS UCU (mixed)
# RNA 1: B1 RNA 1
# RNA 2: B1 RNA 2 with G28C, A52U
# B7: target 1 MT 5'PFS AUA 3'PFS UUC (mixed)
# RNA 1: B1 RNA 1
# RNA 2: B1 RNA 2 with G27A, G28U, C29A, A52U, C53U, U54C
# B8: target 1 MT 5'PFS GCC 3'PFS UCA (mixed)
# RNA 1: B1 RNA 1
# RNA 2: B1 RNA 2 with G28C, A52U, U54A
# B9: target 1 MT 5'PFS GGA 3'PFS UUC (mixed)
# RNA 1: B1 RNA 1
# RNA 2: B1 RNA 2 with C29A, A52U, C53U, U54C
# B10: target 1 MT 5'PFS GCC 3'PFS UCG (mixed)
# RNA 1: B1 RNA 1
# RNA 2: B1 RNA 2 with G28C, A52U, U54G
# B11: target 1 MT 5'PFS GAA 3'PFS AGU (mixed)
# RNA 1: B1 RNA 1
# RNA 2: B1 RNA 2 with G28A, C29A, C53G
# B12: target 1 MT 5'PFS AUA 3'PFS UUG (mixed)
# RNA 1: B1 RNA 1
# RNA 2: B1 RNA 2 with G27A, G28U, C29A, A52U, C53U, U54G
# B13: target 1 insU 3' of 6,insA 3' of 4 (mixed)
# RNA 1: B1 RNA 1
# RNA 2: GGGAAUGGAUCCACAUCUACGAAUUCGUACCAUAGAGAGGUUAUCCUGCAUCACCGAGAUCGGAAGAGCACACGU
# B14: target 1 MT 5'PFS UCC 3'PFS CAG (mixed)
# RNA 1: B1 RNA 1
# RNA 2: B1 RNA 2 with G27U, G28C, A52C, C53A, U54G
# B15: target 1 MT 5'PFS UGU 3'PFS ACG (mixed)
# RNA 1: B1 RNA 1
# RNA 2: B1 RNA 2 with G27U, C29U, U54G
# B16: target 1 MT 5'PFS UCC 3'PFS CAA (mixed)
# RNA 1: B1 RNA 1
# RNA 2: B1 RNA 2 with G27U, G28C, A52C, C53A, U54A
# B17: target 1 MT 5'PFS GCC 3'PFS UCC (mixed)
# RNA 1: B1 RNA 1
# RNA 2: B1 RNA 2 with G28C, A52U, U54C
# B18: target 1 MT 5'PFS GGA 3'PFS UUG (mixed)
# RNA 1: B1 RNA 1
# RNA 2: B1 RNA 2 with C29A, A52U, C53U, U54G
# B19: target 1 MT 5'PFS UGC 3'PFS UAC (mixed)
# RNA 1: B1 RNA 1
# RNA 2: B1 RNA 2 with G27U, A52U, C53A, U54C
# Molecular target: T1, EsCas13d, nuclease-dead
# Assay: crRNA (strand 1, pre-loaded); Mg2+; 40 mM Tris-HCl pH 7.5, 150 mM NaCl, 6 mM MgCl2, 1 mM DTT, 0.1% Tween-20, 0.2 mg/ml BSA; 25 C; 10 min per concentration, then washed
# Details: tags: His6-TwinStrep-SUMO cleaved; N-terminal SNAP kept (SNAP-Surface 488); label: 3' end held by stalled T7 RNA polymerase
row,Binder,Kd
1,B1,14.4 ± 1.55 nM
2,B2,13.4 ± 4.15 nM
3,B3,34.5 ± 13.5 nM
4,B4,71 ± 18 nM
5,B5,14.2 ± 3.1 nM
6,B6,12.2 ± 2.85 nM
7,B7,16.5 ± 5.5 nM
8,B8,27.5 ± 10 nM
9,B9,13.3 ± 2.5 nM
10,B10,15.3 ± 3 nM
11,B11,43 ± 11.5 nM
12,B12,10.8 ± 2.45 nM
13,B13,7.9 ± 0.6 nM
14,B14,~60 nM
15,B15,~80 nM
16,B16,~18 nM
17,B17,12.6 ± 4.75 nM
18,B18,8.9 ± 0.8 nM
19,B19,32 ± 10.5 nM

# From publication PMC10786891, “Massively parallel profiling of RNA-targeting CRISPR-Cas13d”
